Experimental data published in patent publication US20220249563A1 (LEGEND BIOTECH IRELAND, published 2022).
Numbering of substitutions follows the chain as printed. Each block holds one binder with its values, some of them ahead of it.

Biological target: T1, extracellular domain of human DLL3 protein (aa27-466) having an N-terminal FLAG tag (AdipoGen, AG-40B-0151) (human, UniProt Q9NYJ7 27-466)
T1 construct: range 27-466; also called DLL3 ECD protein
T1 sequence (looked up): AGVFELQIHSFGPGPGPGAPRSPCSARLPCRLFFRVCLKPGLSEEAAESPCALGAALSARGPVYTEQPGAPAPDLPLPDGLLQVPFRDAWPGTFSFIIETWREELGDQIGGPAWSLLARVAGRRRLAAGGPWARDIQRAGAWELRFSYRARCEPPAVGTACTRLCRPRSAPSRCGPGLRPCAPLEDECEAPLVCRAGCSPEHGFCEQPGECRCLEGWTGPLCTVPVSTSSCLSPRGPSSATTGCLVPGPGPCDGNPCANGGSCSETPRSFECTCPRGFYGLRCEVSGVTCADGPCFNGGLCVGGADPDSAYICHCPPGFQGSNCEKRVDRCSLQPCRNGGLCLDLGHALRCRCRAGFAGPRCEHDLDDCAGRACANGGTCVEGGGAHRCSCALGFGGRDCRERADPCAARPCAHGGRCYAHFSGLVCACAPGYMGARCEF
Experiment: ELISA (protein), FACS (cells)

binding result: binds
B2: AS64605 (VHH)
VHH: QVKLVESGGGSVQAGGSLRLSCAVSRYPYSSICMGWFRQAPGKESEGVARIYTGTGSTWYTDSVKGRFTIARDNAQNTVYLQMNSLKPEDTAMYYCAARSNSYSYSSCDYGPLTRGGYNFWGQGTQVTVSS
notes: camel sdAb; crude E. coli supernatant

binding result: binds
B6: AS64182 (VHH)
VHH: QVHLMESGGGSVQAGGSLRLSCTASGQTSRYLYMGWFRQTPGKEREGVACIYTGSGSTGYADSVKGRFTISQDNAKNTVYLQTNSLKPEDTAMYYCAASSPHWGGTCRRWSEYKYWGQGTQVTVSS
notes: as for B2

binding result: binds
B7: AS64473 (VHH)
VHH: QVRLVESGGGSVQAGGSLRLSCTASGYTYRYLYMAWFRQTPGKEREGVACIYTGSGTTGYADSVKGRFTISQDNAKNTVYLQMNSLNAEDTAMYYCAASSPQWGGTCRRWSEYNYWGQGTQVTVSS
notes: as for B2

binding result: binds
B10: AS68270 (VHH)
VHH: QVQLAESGGGSVQAGGSLRLSCVASGYPSSTYYMLSMAWFRQAPGKEREGVAAITSGTGSTSYADSVKDRFTISKDYANNTLYLHINNLKPEDTAMYYCAAASGWIVPSRSLTANLYRYWGQGTQVTVSS
notes: as for B2

binding result: binds
B11: AS68351 (VHH)
VHH: QVQLEESGGGLVQPGGSLRLSCAASGDTFRAYYMNWVRQAPGKGFEWVSGISASGGRTSYADSVKGRFTISRDNAKNTLYLQLNSLSTEDTGMYYCVKGAVRLSTSSVRDSSWGQGTQVTVSS
notes: as for B2

binding result: binds
B15: AS64093 (VHH)
VHH: QVHLVESGGGSVQAGGSLRLSCATSRYIYGNNCMAWFRQAPGKEREGVASIYPAGGRTYYADSVKGRFTISQDNAKNTVYLQIDSLKPEDTAMYYCAARSFSIGVCATQSGITWSNFAYWGQGTQVTVSS
notes: as for B2

binding result: binds
B16: AS63951 (VHH)
VHH: B15 VHH with V5M, S21A, A23E, Y27D, T58P, I83M, G104A, Q109R, W114R
notes: as for B2

binding result: binds
B17: AS68320 (VHH)
VHH: QVHLVESGGDSVQAGGSLRLSCAASGYTYNTNYMGWFRQAPGKEREGVAAIYRHSGNTAYADSVKGRFTISQDYAKNTVYLQMNSLKPEDTAMYYCAAGRAGPWALMRPTEFGYWGQGTQVTVSS
notes: as for B2

binding result: binds
B19: AS64594 (VHH)
VHH: QVHLVESGGGSVQAGGSLRLSCAASGYTYNSNYMGWFRQAPGKEREGVALIYTGGGSTYYADSVKGRFTISRDNAKNTVYLQMNSLKPEDTAMYYCSVRTQTRNYWGQGTQVTVSS
notes: as for B2

binding result: binds
B20: AS64513 (VHH)
VHH: EVQLVESGGGSVQAGGSLRLSCVASDYPYIDNCMGWFRQGPGKEREGVAAACTGGGSTYYADSVKGRFTISRDNAKNTVYLQMNSLKPEDTDVYYCATGYYSGSGPGYLLPWRYNYWGQGTQVTVSS
notes: as for B2

binding result: binds
B21: AS64336 (VHH)
VHH: QVQLVESGGGSVQAGGSLRLSCTTSGRTYSSCSMGWYRQAPGKERELVSHIFSDGSRYYADSVKGRFTISQDNAKNTVYLQMNSLKPEDTAMYYCNRRTGWAPRCAVPGYWGQGTQVTVSS
notes: as for B2

binding result: binds
B23: AS64207 (VHH)
VHH: EVQLVESGGGSVQAGGSLRLSCAASGYTYSSNFMGWFRQAPGKEREGVATIVSGGGTTYYADSVRGRFTISQDNAKNTVYLQMNSLKPEDTAMYYCAAGGPPTNGAKWYPLRPPGYNYWGQGTQVTVSS
notes: as for B2

binding result: binds
B25: AS64163 (VHH)
VHH: QVRLVESGGGSVQAGGSLRLSCAVSGYRYRWNCMAWFRQAPGKEREGVAAISTGSGSTYYAGSVKGRFTISQDNAKNMYLQMNSLKPEDTAMYYCAADPSVCPGGMWYSKEYRYWGQGTQVTVSS
notes: as for B2

binding result: binds
B26: AS64135 (VHH)
VHH: QVKLVESGGGSVQAGGSLRLSCVASTSTYCRYYMRWYRQAPGKEREFVSAMQPDGTTSYSDSVKGRFTMSQDRANNMLYLQMNSLRPEDTAMYYCKRDPMGGSRTPCTSAWGQGTQVTVSS
notes: as for B2

binding result: binds
B28: AS64420 (VHH)
VHH: EVQLVESGGGSVQAEGSLRLSCAASGDTSRSVWMGWARQVPGKEREVVATISTAGGSTWYTDSVKGRFTISQDNAKNTVYLQMNSLKPEDTAIYYCAARSRYATYWGQGTQVTVSS
notes: as for B2

binding result: binds
B29: AS64118 (VHH)
VHH: QVQLAESGGGSVQAGGSLRLSCAASGYTYSACRMAWYRQAPGKERELVSFINSAGSTYYADSVKGRFAISRDNAKTTVYLQMNALKAEDTAIYYCNTWDSSCRFQYWGQGTQVTVSS
notes: as for B2

binding result: binds
B30: AS63964 (VHH)
VHH: QVRLVESGGGSVQAGGSLRLSCSASGYTYSYNNMGWFRQAPGNEREGVAAISGGRFTAYADSVKGRFTISRDNAENTLYLQMNNLKPEDTGMYYCAAEVVDPTWGSRDQRRYKYWGQGTQVTVSS
notes: as for B2

binding result: binds
B31: AS64346 (VHH)
VHH: QVHLVESGGGSVQAGGSLRLSCAASGYTYFMGWFRQAPQKEREWVATIGTGDIFNGAAYYVDSVKGRFAISQDNAKNTVYLQMNSLKPEDTAVYVCAAVQSKSSNYVLRDASTYNYWGQGTQVTVSS
notes: as for B2

More lines, now with the values behind:

B1: AS64583 (VHH)
VHH: EVQLAESGGGLVQAGGSLRLSCTASGFTIAVYTMGWFRQAPGKEREGISCTSWAGGRTYTADSVKGRFTISRDNAKNTLYLQMNSLKPEDTAMYYCAAKAHPDCSGDWSPSGYEYWGQGTQVTVSS
notes: as for B2
binding result: binds

B3: AS64276 (VHH)
VHH: QVHLMESGGGSVQAGGSLSLSCVVSGYTGSSRCMAWFRQAPGKEREAVAQIFTGRGTTGYADSVKGRFTISQDNAKNTVYLRMNSLRPEDTAIYYCAASLGPGRGACGYNYWGQGTQVTVSS
notes: as for B2
binding result: binds

B4: AS64475 (VHH)
VHH: QVQLQESGGGSVQAGGSLRLSCAASGYTWSRNWMGWFRQAPGKEREGFATITISGGSTWYADSVKGRFTISLDNAGNTVYLQMNSLKPEDTAMYYCAARDTARTYWGQGTQVTVSS
notes: as for B2
binding result: binds

B5: AS63948 (VHH)
VHH: B7 VHH with R3Q, A35G, T57S, K76E, N87K, A88P, S99A, Q102R
notes: as for B2
binding result: binds

B8: AS64154 (VHH)
VHH: B6 VHH with H3Q, M5K, Q27Y, S29Y, T83M, S85N, H102R, E112Q, K114N
notes: as for B2
binding result: binds

B9: AS64562 (VHH)
VHH: EVQLVESGGGSVQAGGSLRLSCAASGYTARRDFMAWFRQVPGKEREGVAVIHTGGDTTYYADSVKGRFTISRDNAQNIMNLQMNSLKPEDTAMYYCAAGFRPRGGGYTGDVLAQAAAYNYWGQGTQVTVSS
notes: as for B2
binding result: binds

B12: AS64183 (VHH)
VHH: QVHLVESGGGSVQAGGSLRLSCAASGHTYSANCMAWFRRAPGKEREWVASVYTDDDSTMYTDSVKGRFTIFQDNAKNTVYLQMNSLKPEDTGMYICAADLSGGPAGCGYTHWGQGTQVTVSS
notes: as for B2
binding result: binds

B13: AS68121 (VHH)
VHH: EVQLAESGGGSVQAGGSLRLSCDASGYTYSRNCMGWFRQAPGKEREGVAAFYTDYIRFGRTYYADSVKGRFTIFQDNAKNTVYLQMNSLKPEDTAMYYCAADPGSRTDDSCGTSYNKGNFGYWGQGTQVTVSS
notes: as for B2
binding result: binds

B14: AS64120 (VHH)
VHH: B15 VHH with H3R, A23E, T58P, I83M, G104A, V105D, W114R
notes: as for B2
binding result: binds

B18: AS64116 (VHH)
VHH: QVKLVESGGGSVQAGGSLRLSCAASGYIYSCVGWFRQAPGKEREGVAGISTGGGGTVYADSVKGQFTISRDNAKNTVYLQMDSLKPEDTAMYYCAADRWNSFANCGAWGRYTYWGQGTQVTVSS
notes: as for B2
binding result: binds

B22: AS63984 (VHH)
VHH: B23 VHH with E1Q, Q3K, P102V, G105A, A106P, K107R
notes: as for B2
binding result: binds

B24: AS64124 (VHH)
VHH: QVKLVESGGGSVQTGGSLRLSCAVSTYTPSNNYMGWFRQAPGKEREGVAAIATIGGTTRYADSVKGRFTISQDGAKNTIYLQMNGLKPEDTAMYYCAAGRPYSLPLPLPLESGAYRYWGQGTQVTVSS
notes: as for B2
binding result: binds

B27: AS63930 (VHH)
VHH: EVQLAESGGGSVQAGGSLRLSCAASGYTYSGNYMAWFRQAPGNEREGVAVVYNIDGGGRFTTYADSVKGRFTISRGNDKNTVYLQMNSLKPEDSGMYYCAAEVADPTWGSRDQRRYKYWGQGTQVTVSS
notes: as for B2
binding result: binds

B32: AS68170 (VHH)
VHH: QVQLVESGGGSVQAGGSLRLSCTASGYTYRSNCMGWFRQAPGKEREGVATIYTGGGRNLYYADSVKGRFTISRDNAKNTLYLQMNSLKPEDSARYYCAAASDVAVGVNSCGGRTAGFDAWGQGTQVTVSS
notes: as for B2
binding result: binds
